# Measurements published in patent US11912970B2, “Universal microfluidic culture system to analyze and control cell dynamics” (The University of Chicago, priority 2017, dated 2024).
# B1: M-CSF: myeloid cytokine released during infection and inflammation, employed to induce HSCs differentiation (protein, UniProt P09603 33-554, looked up)
# Macrophage colony-stimulating …: EEVSEYCSHMIGSGHLQSLQRLIDSQMETSCQITFEFVDQEQLKDPVCYLKKAFLLVQDIMEDTMRFRDNTPNAIAIVQLQELSLRLKSCFTKDYEEHDKACVRTFYETPLQLLEKVKNVFNETKNLLDKDWNIFSKNCNNSFAECSSQDVVTKPDCNCLYPKAIPSSDPASVSPHQPLAPSMAPVAGLTWEDSEGTEGSSLLPGEQPLHTVDPGSAKQRPPRSTCQSFEPPETPVVKDSTIGGSPQPRPSVGAFNPGMEDILDSAMGTNWVPEEASGEASEIPVPQGTELSPSRPGGGSMQTEPARPSNFLSASSPLPASAKGQQPADVTGTALPRVGPVRPTGQDWNHTPQKTDHPSALLRDPPEPGSPRISSLRPQGLSNPSTLSAQPQLSRSHSSGSVLPLGELEGRRSTRDRRSPAEPEGGPASEGAARPLPRFNSVPLTDTGHERQSEGSFSPQLQESVFHLLVPSVILVLLAVGGLLFYRWRRRSHQEPQRADSPLEQPEGSPLTQDDRQVELPV
# B2: Jagged: signaling ligand whose receptor is highly expressed during mouse forebrain development (protein, UniProt Q9QXX0 34-1218, looked up)
# Protein jagged-1: QFELEILSMQNVNGELQNGNCCGGVRNPGDRKCTRDECDTYFKVCLKEYQSRVTAGGPCSFGSGSTPVIGGNTFNLKASRGNDRNRIVLPFSFAWPRSYTLLVEAWDSSNDTIQPDSIIEKASHSGMINPSRQWQTLKQNTGIAHFEYQIRVTCDDHYYGFGCNKFCRPRDDFFGHYACDQNGNKTCMEGWMGPDCNKAICRQGCSPKHGSCKLPGDCRCQYGWQGLYCDKCIPHPGCVHGTCNEPWQCLCETNWGGQLCDKDLNYCGTHQPCLNRGTCSNTGPDKYQCSCPEGYSGPNCEIAEHACLSDPCHNRGSCKETSSGFECECSPGWTGPTCSTNIDDCSPNNCSHGGTCQDLVNGFKCVCPPQWTGKTCQLDANECEAKPCVNARSCKNLIASYYCDCLPGWMGQNCDININDCLGQCQNDASCRDLVNGYRCICPPGYAGDHCERDIDECASNPCLNGGHCQNEINRFQCLCPTGFSGNLCQLDIDYCEPNPCQNGAQCYNRASDYFCKCPEDYEGKNCSHLKDHCRTTTCEVIDSCTVAMASNDTPEGVRYISSNVCGPHGKCKSQSGGKFTCDCNKGFTGTYCHENINDCESNPCKNGGTCIDGVNSYKCICSDGWEGAHCENNINDCSQNPCHYGGTCRDLVNDFYCDCKNGWKGKTCHSRDSQCDEATCNNGGTCYDEVDTFKCMCPGGWEGTTCNIARNSSCLPNPCHNGGTCVVNGDSFTCVCKEGWEGPICTQNTNDCSPHPCYNSGTCVDGDNWYRCECAPGFAGPDCRININECQSSPCAFGATCVDEINGYQCICPPGHSGAKCHEVSGRSCITMGRVILDGAKWDDDCNTCQCLNGRVACSKVWCGPRPCRLHKSHNECPSGQSCIPVLDDQCFVRPCTGVGECRSSSLQPVKTKCTSDSYYQDNCANITFTFNKEMMSPGLTTEHICSELRNLNILKNVSAEYSIYIACEPSLSANNEIHVAISAEDIRDDGNPVKEITDKIIDLVSKRDGNSSLIAAVAEVRVQRRPLKNRTDFLVPLLSSVLTVAWVCCLVTAFYWCVRKRRKPSSHTHSAPEDNTTNNVREQLNQIKNPIEKHGANTVPIKDYENKNSKMSKIRTHNSEVEEDDMDKHQQKVRFAKQPVYTLVDREEKAPSGTPTKHPNWTNKQDNRDLESAQSLNRMEYIV
# How the values were obtained:
# Format in all cases: cell-based, mouse
# [1] = test system: mice HSCs; experiment: M-CSF induced differentiation of mice HSCs on chip; settings: media replacement through the buffering layer
# From the text: FIG. 11B(I) depicts the culture of mice HSCs cells in suspension mode, and (II) depicts the differentiation of mice HSCs cells by introducing M-CSF differentiation media.
# Murine hematopoietic stem cells (HSC) are isolated by FACSAria III flow cytometer (BD Biosciences) as Lin−/c-Kit+/Sca-1+/CD48−/CD150+/CD34− (lineage, Lin: CD3e/CD11b/CD19/CD41/B220/Gr-1/Ter-119), which are approximately 50% pure HSCs. Macrophage colony-stimulating factor (M-CSF), a myeloid cytokine released during infection and inflammation, is employed to induce HSCs differentiation. Human CD34+ cells were isolated from mononuclear cells using EasySepTM human CD34 positive selection kit (Stemcell Technologies, Vancouver, BC, Canada). CD34+CD38−CD45RA−CD90+CD49f+ HSCs were sorted using a FACSAria III flow cytometer (BD Biosciences). Pro- and anti-inflammatory cytokines including TNF, IFN[…], IL-6, IP10 and MCP-1 are introduced into the cellular environment as single ligand and in combination. Embryonic NSCs with Hes-GFP and Dcx-RFP reporters were isolated at embryonic day 13.5 from a transgenic mice carrying Hes-GFP and Dcx-RFP using standard protocol (Woo, et al., 2009; Basak, et al., 2007). The resulting primary cells were verified to carry both Hes5-GFP and Dcx-RFP after isolation and allowed to grow for few passages before use in the experiments (Giachino, et al., 2009). […]
# [2] = test system: NSCs; experiment: NSCs proliferation (cell number) under combinatorial ligand inputs (permutation test and decision tree analysis); settings: combinatorial input, decision tree, without PACAP
# From the text: (§1) Murine hematopoietic stem cells (HSC) are isolated by FACSAria III flow cytometer (BD Biosciences) as Lin−/c-Kit+/Sca-1+/CD48−/CD150+/CD34− (lineage, Lin: CD3e/CD11b/CD19/CD41/B220/Gr-1/Ter-119), which are approximately 50% pure HSCs. Macrophage colony-stimulating factor (M-CSF), a myeloid cytokine released during infection and inflammation, is employed to induce HSCs differentiation. Human CD34+ cells were isolated from mononuclear cells using EasySepTM human CD34 positive selection kit (Stemcell Technologies, Vancouver, BC, Canada). CD34+CD38−CD45RA−CD90+CD49f+ HSCs were sorted using a FACSAria III flow cytometer (BD Biosciences). […]
# (§2) For image acquisition, a Nikon Ti-ECLIPSE microscope with an automated translation stage and a digital CMOS camera (ORCA-Flash 4.0, Hamamatsu, Japan) was used. […] Bright field and fluorescence images were acquired and analyzed using a customized MATLAB program (Mathworks, […]). The algorithm extracts single cell traces including position, nuclear and cytoplasm fluorescence level. For example, the 3T3 cell nuclear area in each image is identified via the fluorescent nuclear marker GFP, and then the mean value of the nuclear intensity of the p65-DsRed marker is measured, and plotted as a function of time. […]
# [3] = test system: NSCs; experiment: NSCs proliferation (cell number) under sequential ligand inputs (permutation test and decision tree analysis); settings: sequential input, ligand added at day 1
# From the text: as §1, §2
# [4] = test system: Hes5-GFP expression in NSCs; experiment: NSCs Hes5-GFP expression under sequential ligand inputs (permutation test and decision tree analysis); settings: sequential input
# From the text: as §1, §2
Molecule,response of HSCs to ligand input [1],"cell number, mean ratio relative to control ([2]; Jagged present)","cell number, mean ratio relative to control ([2]; Jagged with DLL also added)",cell number relative to control [3],effect on Hes5 expression ([4]; DLL added before Jagged in the first 3 days),Hes5 expression relative to control ([4]; ligand added at day 1)
B1,instantaneous response,–,–,–,–,–
B2,–,1.14,1.08,111.0 % of the control,enhance Hes5 expression,94.5 % of the control
